# Reference: publication doi:10.1101/2025.07.11.664294 (2025)
# Bridges are numbered along the chain shown (N, C = ends).
# B1: P78 (Ctx fragment) 27-34 (peptide)
# chain: Ac-KCYGPQCL-NH2
# modifications: disulfide 2-7
# SMILES: CC(=O)N[C@@H](CCCCN)C(=O)N[C@H]1CSSC[C@@H](C(=O)N[C@@H](CC(C)C)C(N)=O)NC(=O)[C@H](CCC(N)=O)NC(=O)[C@@H]2CCCN2C(=O)CNC(=O)[C@H](Cc2ccc(O)cc2)NC1=O
# Target: Neuropilin-1 (NRP-1) 22-644 (Homo sapiens, UniProt O14786)
# Test: SPR
# Neuropilin-1 (NRP-1) 22-644, sequence (O14786 22-644): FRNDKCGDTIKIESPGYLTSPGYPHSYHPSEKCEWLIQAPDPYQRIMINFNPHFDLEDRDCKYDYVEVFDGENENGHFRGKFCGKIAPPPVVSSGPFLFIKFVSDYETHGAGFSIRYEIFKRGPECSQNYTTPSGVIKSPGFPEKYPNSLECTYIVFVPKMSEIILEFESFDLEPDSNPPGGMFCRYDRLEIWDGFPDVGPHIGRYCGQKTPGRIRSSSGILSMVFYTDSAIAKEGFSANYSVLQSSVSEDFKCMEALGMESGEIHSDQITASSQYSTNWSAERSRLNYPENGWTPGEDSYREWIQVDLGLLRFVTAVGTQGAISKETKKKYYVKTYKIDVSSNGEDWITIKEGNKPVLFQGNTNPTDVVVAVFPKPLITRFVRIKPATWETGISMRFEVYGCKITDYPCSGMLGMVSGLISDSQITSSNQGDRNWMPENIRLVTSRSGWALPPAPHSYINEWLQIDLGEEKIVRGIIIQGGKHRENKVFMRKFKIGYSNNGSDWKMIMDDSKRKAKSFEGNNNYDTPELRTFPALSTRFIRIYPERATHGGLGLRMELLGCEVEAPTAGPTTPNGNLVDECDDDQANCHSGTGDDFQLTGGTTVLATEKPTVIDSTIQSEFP
binder,measurement,value
B1,Kd,267 µM
